Measured values published in patent publication US20060140929.
Residue numbers refer to the chain shown, from its start.

Assays:
[1] = tested on: T1, hirudin mutein M 2 (I29R L30H)
T1 sequence: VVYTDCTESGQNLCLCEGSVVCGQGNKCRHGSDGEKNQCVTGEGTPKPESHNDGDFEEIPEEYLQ

[2] = tested on: T2, hirudin mutein M 1 (I29A L30A)
T2 sequence: T1 sequence with R29A, H30A

thrombin
Relative activity (ED50 variant/ED50 WT hirudin), chromogenic thrombin cleavage assay [1]: 1.2 | Relative activity (ED50 variant/ED50 WT hirudin), chromogenic thrombin cleavage assay [2]: 1.4
